{"source": "paper PMC8754650", "about": "“Structural basis of DNA methylation-dependent site selectivity of the Epstein–Barr virus lytic switch protein ZEBRA/Zta/BZLF1”", "binders": {"B1": {"name": "meZRE2 (EMSA) (dsDNA)", "DNA 1": "ATAGCTTATGAGCGATTTTATC", "DNA 2": "ATGATAAAATCGCTCATAAGCT", "modifications": "5mC at position 13 of strand 1 and 11 of strand 2"}, "B2": {"name": "AP-1 (FP) (dsDNA)", "DNA 1": "AGCTTATGAGTCATTTTAT", "DNA 2": "AATAAAATGACTCATAAGC"}, "B3": {"name": "hemi-me C-2' ZRE2 (EMSA) (dsDNA)", "DNA 1": "ATAGCTTATGAGCGATTTTATC", "DNA 2": "ATGATAAAATCGCTCATAAGCT", "modifications": "5mC at position 11 of strand 2"}, "B4": {"name": "hemi-me C1 ZRE2 (EMSA) (dsDNA)", "DNA 1": "ATAGCTTATGAGCGATTTTATC", "DNA 2": "ATGATAAAATCGCTCATAAGCT", "modifications": "5mC at position 13 of strand 1"}, "B5": {"name": "oriLyt ZRE5 (EMSA) (dsDNA)", "DNA 1": "ATAGCTTATGTGCAATTTTATC", "DNA 2": "ATGATAAAATTGCACATAAGCT"}}, "key": {"Strep/FLAG:ZEBRA [1]": {"biological_target": "T1, Strep/FLAG:ZEBRA (Epstein-Barr virus, UniProt P03206 149-245)", "T1 sequence (P03206 149-245)": "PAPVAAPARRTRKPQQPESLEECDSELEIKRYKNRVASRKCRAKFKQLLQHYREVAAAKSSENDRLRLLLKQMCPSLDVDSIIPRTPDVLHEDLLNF", "experiment": "EMSA; tightest; FP: PBS (137 mM NaCl, 2.7 mM KCl, 10 mM Na2HPO4, 1.8 mM KH2PO4) pH 7.4, 20 C, 10 nM duplex, 28 ng/ul herring testes DNA competitor; EMSA per cited ref with competitor DNA", "conditions": "protein: recombinant; tags: StrepII/FLAG; chain copies: 2; 5' overhang 2 nt each end"}, "GCN4 DBD WT": {"biological_target": "GCN4 DBD WT (Saccharomyces cerevisiae, UniProt P03069 228-281)", "sequence (P03069 228-281)": "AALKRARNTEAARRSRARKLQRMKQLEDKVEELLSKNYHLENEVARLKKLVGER", "experiment": "FP; apparent; FP: PBS (137 mM NaCl, 2.7 mM KCl, 10 mM Na2HPO4, 1.8 mM KH2PO4) pH 7.4, 20 C, 10 nM duplex, 28 ng/ul herring testes DNA competitor; EMSA per cited ref with competitor DNA", "conditions": "protein: recombinant; tags: MBP; chain copies: 2; label: rhodamine 5' of strand 1; 5' overhang 1 nt each end"}, "ZEBRA DBD WT": {"biological_target": "ZEBRA DBD WT (Epstein-Barr virus, UniProt P03206 175-236)", "sequence (P03206 175-236)": "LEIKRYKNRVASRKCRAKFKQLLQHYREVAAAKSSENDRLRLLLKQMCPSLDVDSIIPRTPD", "experiment": "FP; apparent, Hill n=2; FP: PBS (137 mM NaCl, 2.7 mM KCl, 10 mM Na2HPO4, 1.8 mM KH2PO4) pH 7.4, 20 C, 10 nM duplex, 28 ng/ul herring testes DNA competitor; EMSA per cited ref with competitor DNA", "conditions": "protein: recombinant; tags: MBP; chain copies: 2; label: rhodamine 5' of strand 1; 5' overhang 1 nt each end"}, "Strep/FLAG:ZEBRA [2]": {"biological_target": "T1, Strep/FLAG:ZEBRA", "experiment": "EMSA; between ZRE2 and meZRE2; FP: PBS (137 mM NaCl, 2.7 mM KCl, 10 mM Na2HPO4, 1.8 mM KH2PO4) pH 7.4, 20 C, 10 nM duplex, 28 ng/ul herring testes DNA competitor; EMSA per cited ref with competitor DNA", "conditions": "protein: recombinant; tags: StrepII/FLAG; chain copies: 2; 5' overhang 2 nt each end"}, "Strep/FLAG:ZEBRA [3]": {"biological_target": "T1, Strep/FLAG:ZEBRA", "experiment": "EMSA; between ZRE2 and meZRE2; slightly stronger than hemi C-2'; FP: PBS (137 mM NaCl, 2.7 mM KCl, 10 mM Na2HPO4, 1.8 mM KH2PO4) pH 7.4, 20 C, 10 nM duplex, 28 ng/ul herring testes DNA competitor; EMSA per cited ref with competitor DNA", "conditions": "protein: recombinant; tags: StrepII/FLAG; chain copies: 2; 5' overhang 2 nt each end"}, "Strep/FLAG:ZEBRA [4]": {"biological_target": "T1, Strep/FLAG:ZEBRA", "experiment": "EMSA; intermediate, similar to hemi-methylated sites; FP: PBS (137 mM NaCl, 2.7 mM KCl, 10 mM Na2HPO4, 1.8 mM KH2PO4) pH 7.4, 20 C, 10 nM duplex, 28 ng/ul herring testes DNA competitor; EMSA per cited ref with competitor DNA", "conditions": "protein: recombinant; tags: StrepII/FLAG; chain copies: 2; 5' overhang 2 nt each end"}}, "data": [{"binder": "B1", "values": [{"measurement": "binding result", "setting": "Strep/FLAG:ZEBRA [1]", "result": "binds"}]}, {"binder": "B2", "values": [{"measurement": "Kd", "setting": "GCN4 DBD WT", "result": "77.9 ± 8.8", "unit": "nM"}, {"measurement": "Kd", "setting": "ZEBRA DBD WT", "result": "271 ± 25", "unit": "nM"}]}, {"binder": "B3", "values": [{"measurement": "binding result", "setting": "Strep/FLAG:ZEBRA [2]", "result": "binds"}]}, {"binder": "B4", "values": [{"measurement": "binding result", "setting": "Strep/FLAG:ZEBRA [3]", "result": "binds"}]}, {"binder": "B5", "values": [{"measurement": "binding result", "setting": "Strep/FLAG:ZEBRA [4]", "result": "binds"}]}]}
